The values below are quoted from earlier work in publication PMC4488278.

For this series, the target named is EGFR (Homo sapiens) (UniProt P00533).

What is called Kd is the free concentration of one partner at which half of the binding sites on the other are occupied at equilibrium, for simple one-to-one binding. Consider EGF (from UniProt P01133), for which the Kd is 1 nM.
